Experiment [1] addresses human CCR8 expressed on transfected cells (human, UniProt P51685 1-355). Nature of the experiment: cell-based or functional assay.
In experiment [2] the target is CCR8 tagged at the N-terminus with a C-myc epitope tag and at the C-terminus with Renilla luciferase variant 8 (human, UniProt P51685 1-355). The experiment can be described thus: cell-based or functional assay.
For experiment [3], the target named is T1, mCCR8 tagged at the N-terminus with a C-myc epitope tag and at the C-terminus with Renilla luciferase variant 8 (mouse) (UniProt P56484).
T1 sequence: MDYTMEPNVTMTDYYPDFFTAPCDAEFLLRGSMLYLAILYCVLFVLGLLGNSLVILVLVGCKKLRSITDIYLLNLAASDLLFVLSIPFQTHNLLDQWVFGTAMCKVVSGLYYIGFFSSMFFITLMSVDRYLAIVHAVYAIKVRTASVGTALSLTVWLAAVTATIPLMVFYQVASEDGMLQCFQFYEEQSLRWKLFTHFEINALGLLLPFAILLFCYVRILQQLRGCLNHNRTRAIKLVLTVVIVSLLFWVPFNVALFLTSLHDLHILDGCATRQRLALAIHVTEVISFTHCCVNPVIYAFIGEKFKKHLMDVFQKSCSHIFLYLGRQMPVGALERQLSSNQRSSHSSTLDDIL

Experiment [4] addresses T2, mouse CCR8 expressed on FlpInCHO cells (mouse) (UniProt P56484).
T2 sequence: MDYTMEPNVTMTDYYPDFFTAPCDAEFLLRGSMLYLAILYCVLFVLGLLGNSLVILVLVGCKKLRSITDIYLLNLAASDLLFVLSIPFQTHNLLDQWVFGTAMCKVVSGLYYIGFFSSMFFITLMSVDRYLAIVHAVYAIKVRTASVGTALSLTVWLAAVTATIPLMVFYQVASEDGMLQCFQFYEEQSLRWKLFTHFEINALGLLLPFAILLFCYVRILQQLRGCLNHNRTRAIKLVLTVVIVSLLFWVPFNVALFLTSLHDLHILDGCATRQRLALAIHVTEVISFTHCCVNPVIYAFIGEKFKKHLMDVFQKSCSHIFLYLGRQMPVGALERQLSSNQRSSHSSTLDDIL

Experiment [5] addresses T3, human CCR3 expressed on 4DE4 cells (human) (UniProt P51677).
T3 sequence: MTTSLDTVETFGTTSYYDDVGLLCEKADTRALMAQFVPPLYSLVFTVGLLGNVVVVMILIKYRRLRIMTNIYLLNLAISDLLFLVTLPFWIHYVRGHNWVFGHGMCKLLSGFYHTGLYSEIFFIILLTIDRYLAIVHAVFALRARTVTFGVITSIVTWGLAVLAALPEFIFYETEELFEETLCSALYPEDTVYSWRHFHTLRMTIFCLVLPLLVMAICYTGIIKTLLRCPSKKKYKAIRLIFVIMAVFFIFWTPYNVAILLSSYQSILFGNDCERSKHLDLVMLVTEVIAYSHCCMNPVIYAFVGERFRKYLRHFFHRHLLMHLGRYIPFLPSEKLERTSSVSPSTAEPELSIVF

Chain of human CCR8 expressed on transfected cells (P51685 whole entry): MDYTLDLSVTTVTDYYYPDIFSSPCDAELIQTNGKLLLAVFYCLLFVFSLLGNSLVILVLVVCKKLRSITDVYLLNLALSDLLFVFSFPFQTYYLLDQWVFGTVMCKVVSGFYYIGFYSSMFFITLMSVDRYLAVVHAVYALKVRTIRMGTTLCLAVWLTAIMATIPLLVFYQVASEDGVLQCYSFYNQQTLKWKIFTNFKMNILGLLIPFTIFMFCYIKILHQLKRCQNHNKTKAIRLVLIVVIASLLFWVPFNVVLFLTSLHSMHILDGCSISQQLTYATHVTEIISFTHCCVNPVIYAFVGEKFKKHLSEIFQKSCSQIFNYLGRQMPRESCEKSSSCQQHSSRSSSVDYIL
Chain of CCR8 tagged at the N-terminus with a C-myc epitope tag and at the C-terminus with Renilla luciferase variant 8 (P51685 whole entry, change not shown): as the sequence (P51685 whole entry) above

B1: CCL1 (ligand, human, UniProt P22362 24-96, looked up)
chain: KSMQVPFSRCCFSFAEQEIPLRAILCYRNTSSICSNEGLIFKLKRGKEACALDTVGWVQRHRKMLRHCPSKRK
On to B1, for which, in experiment [1], the “G protein activation (Gαi2; BRET of Gβγ with a GRK fragment) in FlpIn CHO cells stably expressing CCR8; EC50” value was found to be 46 nM and the “inhibition of forskolin-stimulated cAMP synthesis (CAMYEL biosensor) in FlpIn CHO cells stably expressing CCR8; EC50” value was 26 nM. In addition, the “β-arrestin2 recruitment to CCR8 (BRET) in FlpIn CHO cells; EC50 of CCL1” value in experiment [2] is 21 nM.

B2: murine CCL1 (ligand)
chain: KSMLTVSNSCCLNTLKKELPLKFIQCYRKMGSSCPDPPAVVFRLNKGRESCASTNKTWVQNHLKKVNPC
B2 had a β-arrestin2 recruitment to mCCR8 (BRET) in FlpIn CHO cells; EC50 of mCCL1 in experiment [3] of 24 nM. In experiment [4], this molecule had a G protein activation in FlpIn CHO cells stably expressing mCCR8; EC50 of 11 nM and a cAMP inhibition in FlpIn CHO cells stably expressing mCCR8; EC50 of 30 nM.

B3: CCL18(1–69) (ligand)
chain: AQVGTNKELCCLVYTSWQIPQKFIVDYSETSPQCPKPGVILLTKRGRQICADPNKKWVQKYISDLKLNA
With B3, the inhibition by CCL18 of chemotaxis of 4DE4-CCR3 cells to 1 nM CCL11 (blocks CCL11 with CCR3); 50% inhibitory concentration in experiment [5] is below 50 nM.

The record behind these values is publication PMC11389940, “The chemokine receptor CCR8 is not a high-affinity receptor for the human chemokine CCL18” (PLOS ONE, 2024).
